Test results reported in the RNAGym collection of RNA variant scans (doi:10.1093/nar/gkz1192).

B1: CPEB3 Ribozyme (parent)
chain: UAACAGGGGGCCACAGCAGAAGCGUUCACGUCGCAGCCCCUGUCAGAUUCUGGUGAAUCUGCGAAUUCUGCUGUAUAUCUC

Variants of: B1
Experiment: self-cleavage, relative activity (ratio to wild type); higher = more cleavage; in vitro, sequencing
Method in brief: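 For each CPEB3 ribozyme variant, relative activity is its cleaved/total read fraction divided by the unmutated ribozyme's. Barcoded error-prone PCR libraries were transcribed by T7 RNA polymerase (5 hours, 37°C) and held in DNase I for 15 min before an EDTA stop, with cleavage occurring throughout. Template-switching reverse transcription and Illumina sequencing were used to read the RNAs. A 5-read minimum applied, and results are the mean of three batches.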

Row | Variant | self-cleavage
1 | UAACAGGGGGCCACAGCAGAGGCGUUCACGUCGCAGCCCCUGUCAGAUUCUGGUGAAUCUGGGAAUUCUGCUGUAUAUCUC | 0.22
2 | UAACAGGGGGCCACAGCAGAGGCGUUCACGUCGCAGCCCCUGUCAGAUUCUGGUGAAUCUGUGAAUUCUGCUGUAUAUCUC | 0.19
3 | UAACAGGGGGCCACAGCAGAGGCGUUCACGUCGCAGCCCCUGUCAGAUUCUGGUGAAUCUGCGAAUUAUGCUGUAUAUCUC | 0.17
4 | UAACAGGGGGCCACAGCAGAGGCGUUCACGUCGCAGCCCCUGUCAGAUUCUGGUGAAUCUGCGAAUUGUGCUGUAUAUCUC | 0.2
5 | UAACAGGGGGCCACAGCAGAGGCGUUCACGUCGCAGCCCCUGUCAGAUUCUGGUGAAUCUGCGAAUUUUGCUGUAUAUCUC | 0.43
6 | UAACAGGGGGCCACAGCAGAGGCGUUCACGUCGCAGCCCCUGUCAGAUUCUGGUGAAUCUGCGAAUUCUGAUGUAUAUCUC | 0.07
7 | UAACAGGGGGCCACAGCAGAGGCGUUCACGUCGCAGCCCCUGUCAGAUUCUGGUGAAUCUGCGAAUUCUGUUGUAUAUCUC | 0.32
8 | UAACAGGGGGCCACAGCAGAGGCGUUCACGUCGCAGCCCCUGUCAGAUUCUGGUGAAUCUGCGAAUUCUGCUGUAUAUUUC | 0.76
9 | UAACAGGGGGCCACAGCAGAGGCGUUCACGUCGCAGCCCCUGUCAGAUUCUGGUGAAUCUGCGAAUUCUGCUGUAUAUCUU | 0.92
10 | UAACAGGGGGCCACAGCAGAGACGUUCACGUCGCAGCCCCUGUCAGAUUCUGGUGAAUCUGCGAAUUCUGCUGUAUAUCUC | 0.17
11 | UAACAGGGGGCCACAGCAGAGGCAUUCACGUCGCAGCCCCUGUCAGAUUCUGGUGAAUCUGCGAAUUCUGCUGUAUAUCUC | 0.24
12 | UAACAGGGGGCCACAGCAGAGGCCUUCACGUCGCAGCCCCUGUCAGAUUCUGGUGAAUCUGCGAAUUCUGCUGUAUAUCUC | 0.23
13 | UAACAGGGGGCCACAGCAGAGGCUUUCACGUCGCAGCCCCUGUCAGAUUCUGGUGAAUCUGCGAAUUCUGCUGUAUAUCUC | 0.44
14 | UAACAGGGGGCCACAGCAGAGGCGUUCACAUCGCAGCCCCUGUCAGAUUCUGGUGAAUCUGCGAAUUCUGCUGUAUAUCUC | 0.32
15 | UAACAGGGGGCCACAGCAGAGGCGUUCACCUCGCAGCCCCUGUCAGAUUCUGGUGAAUCUGCGAAUUCUGCUGUAUAUCUC | 0.15
16 | UAACAGGGGGCCACAGCAGAGGCGUUCACUUCGCAGCCCCUGUCAGAUUCUGGUGAAUCUGCGAAUUCUGCUGUAUAUCUC | 0.21
17 | UAACAGGGGGCCACAGCAGAGGCGUUCACGUCACAGCCCCUGUCAGAUUCUGGUGAAUCUGCGAAUUCUGCUGUAUAUCUC | 0.33

Row | Variant | self-cleavage
18 | UAACAGGGGGCCACAGCAGAGGCGUUCACGUCCCAGCCCCUGUCAGAUUCUGGUGAAUCUGCGAAUUCUGCUGUAUAUCUC | 0.14
19 | UAACAGGGGGCCACAGCAGAGGCGUUCACGUCUCAGCCCCUGUCAGAUUCUGGUGAAUCUGCGAAUUCUGCUGUAUAUCUC | 0.19
20 | UAACAGGGGGCCACAGCAGAGGCGUUCACGUCGCACCCCCUGUCAGAUUCUGGUGAAUCUGCGAAUUCUGCUGUAUAUCUC | 0.24
21 | UAACAGGGGGCCACAGCAGAGGCGUUCACGUCGCAUCCCCUGUCAGAUUCUGGUGAAUCUGCGAAUUCUGCUGUAUAUCUC | 0.07
22 | UAACAGGGGGCCACAGCAGAGGCGUUCACGUCGCAGCCCCUAUCAGAUUCUGGUGAAUCUGCGAAUUCUGCUGUAUAUCUC | 0.25
23 | UAACAGGGGGCCACAGCAGAGGCGUUCACGUCGCAGCCCCUUUCAGAUUCUGGUGAAUCUGCGAAUUCUGCUGUAUAUCUC | 0.37
24 | UAACAGGGGGCCACAGCAGAGGCGUUCACGUCGCAGCCCCUGUCAAAUUCUGGUGAAUCUGCGAAUUCUGCUGUAUAUCUC | 0.42
25 | UAACAGGGGGCCACAGCAGAGGCGUUCACGUCGCAGCCCCUGUCACAUUCUGGUGAAUCUGCGAAUUCUGCUGUAUAUCUC | 0.18
26 | UAACAGGGGGCCACAGCAGAGGCGUUCACGUCGCAGCCCCUGUCAUAUUCUGGUGAAUCUGCGAAUUCUGCUGUAUAUCUC | 0.36
27 | UAACAGGGGGCCACAGCAGAGGCGUUCACGUCGCAGCCCCUGUCAGAUUCUAGUGAAUCUGCGAAUUCUGCUGUAUAUCUC | 0.72
28 | UAACAGGGGGCCACAGCAGAGGCGUUCACGUCGCAGCCCCUGUCAGAUUCUGAUGAAUCUGCGAAUUCUGCUGUAUAUCUC | 0.58
29 | UAACAGGGGGCCACAGCAGAGGCGUUCACGUCGCAGCCCCUGUCAGAUUCUGGUAAAUCUGCGAAUUCUGCUGUAUAUCUC | 0.42
30 | UAACAGGGGGCCACAGCAGAGGCGUUCACGUCGCAGCCCCUGUCAGAUUCUGGUUAAUCUGCGAAUUCUGCUGUAUAUCUC | 0.57
31 | UAACAGGGGGCCACAGCAGAGGCGUUCACGUCGCAGCCCCUGUCAGAUUCUGGUGAAUCUACGAAUUCUGCUGUAUAUCUC | 0.2
32 | UAACAGGGGGCCACAGCAGAGGCGUUCACGUCGCAGCCCCUGUCAGAUUCUGGUGAAUCUUCGAAUUCUGCUGUAUAUCUC | 0.34
33 | UAACAGGGGGCCACAGCAGAGGCGUUCACGUCGCAGCCCCUGUCAGAUUCUGGUGAAUCUGCUAAUUCUGCUGUAUAUCUC | 0.61
34 | UAACAGGGGGCCACAGCAGAGGCGUUCACGUCGCAGCCCCUGUCAGAUUCUGGUGAAUCUGCGAAUUCUACUGUAUAUCUC | 0.22
